Values belong to the substance of their own block, whether it stands above or below them.
What was measured:
[1] = molecular target: hyperstable HIV-1 CA_(A14C,E45C) cores (HIV-1 (NL4-3)); assay: cross-linking
[2] = molecular target: hyperstable HIV-1 cores (affinity-purified), as used for TRIM5α binding and imaging (HIV-1 (NL4-3)); assay: co-sedimentation; conditions: scale: CA per TRIM5α_(AGMpyg)
[3] = molecular target: truncated TRIM5α_(AGMpyg) that lacked the SPRY domain (African green monkey (Chlorocebus pygerythrus)); assay: SEC; final gel filtration step, HiLoad 16/600 Superdex 200 in 20 mM CHES, 100 nM ZnCl2, 1 mM TCEP, pH 10.0, 4°C; oligomer judged from retention time

Substance: hyperstable HIV-1 CA_(A14C,E45C) cores (complex)
stoichiometry N [1]: 6

Substance: African green monkey TRIM5α (Chlorocebus pygerythrus) (from UniProt Q5C8U4 1-515) (natural protein)
stoichiometry N [2]: 7

stoichiometry N [3]: 2
Substance: truncated TRIM5α_(AGMpyg) that lacked the SPRY domain (domain or fragment)
